From patent publication US20150344570A1 (published 2015)

T1: FcγRIIb extracellular domain with C-terminal His tag (human, UniProt P31994 43-217)
T1 construct: extracellular domain; Expressed in FreeStyle293 cells; analyte in the SPR assay; also called FcgRIIb; 2b
T1 sequence (looked up): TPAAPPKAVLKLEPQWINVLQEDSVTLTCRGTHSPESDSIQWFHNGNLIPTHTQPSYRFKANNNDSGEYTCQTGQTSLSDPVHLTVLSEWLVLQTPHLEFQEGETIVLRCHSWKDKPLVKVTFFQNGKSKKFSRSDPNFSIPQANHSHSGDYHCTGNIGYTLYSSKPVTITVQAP

T2: FcγRIIa R (human, UniProt P12318 34-217)
T2 construct: extracellular domain; also called FcgRIIa R; FcγRIIa type R; not shown: His tag at the C terminus
T2 sequence (looked up): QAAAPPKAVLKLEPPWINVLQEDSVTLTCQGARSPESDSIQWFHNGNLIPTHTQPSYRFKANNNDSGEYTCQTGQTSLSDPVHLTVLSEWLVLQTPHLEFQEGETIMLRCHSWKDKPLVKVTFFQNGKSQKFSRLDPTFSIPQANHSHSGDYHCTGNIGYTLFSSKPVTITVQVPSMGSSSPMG

T3: FcγRIIb (human, UniProt P31994 43-217)
T3 construct: extracellular domain; also called FcgRIIb; 2b; not shown: His tag at the C terminus
T3 sequence (looked up): T1 sequence (looked up)

B1: GpH7-A5/GpH7-B3 variant L235_13S/GpL16-k0 (He Ab) (antibody, human IgG1, kappa)
heavy 1: not shown
heavy 2: not shown
light: DIVMTQSPLSLPVTPGEPASISCQASESLVHSNRNTYLHWYLQKPGQSPQLLIYKVSNRFSGVPDRFSGSGSGTDFTLKISRVEAEDVGVYYCSQNTHVPPTFGQGTKVEIERTVAAPSVFIFPPSDEQLKSGTASVVCLLNNFYPREAKVQWKVDNALQSGNSQESVTEQDSKDSTYSLSSTLTLSKADYEKHKVYACEVTHQGLSSPVTKSFNRGEC
notes: He Ab: mutation in one H chain only
B2: GpH7-A5/GpH7-B3 variant L234_11K/GpL16-k0 (He Ab) (antibody, human IgG1, kappa)
heavy 1: not shown
heavy 2: not shown
light: B1 light
notes: as for B1
B3: GpH7-A5/GpH7-B3 variant S239_12R/GpL16-k0 (antibody, human IgG1, kappa)
heavy 1: not shown
heavy 2: not shown
light: B1 light
notes: Heterodimerized anti-glypican-3 IgG1; mutation in one H chain only; also called He Ab
B4: GpH7-A5/GpH7-B3 variant L235_12R/GpL16-k0 (He Ab) (antibody, human IgG1, kappa)
heavy 1: not shown
heavy 2: not shown
light: B1 light
notes: as for B1
B5: GpH7-A5/GpH7-B3 variant L235_01G/GpL16-k0 (He Ab) (antibody, human IgG1, kappa)
heavy 1: not shown
heavy 2: not shown
light: B1 light
notes: as for B1
B6: GpH7-A5/GpH7-B3 variant L235_19Q/GpL16-k0 (He Ab) (antibody, human IgG1, kappa)
heavy 1: not shown
heavy 2: not shown
light: B1 light
notes: as for B1
B7: GpH7-A5/GpH7-B3 variant L235_11K/GpL16-k0 (He Ab) (antibody, human IgG1, kappa)
heavy 1: not shown
heavy 2: not shown
light: B1 light
notes: as for B1
B8: GpH7-A5/GpH7-B3 variant L234_07I/GpL16-k0 (He Ab) (antibody, human IgG1, kappa)
heavy 1: not shown
heavy 2: not shown
light: B1 light
notes: as for B1
B9: GpH7-A5/GpH7-B3 variant L235_05P/GpL16-k0 (He Ab) (antibody, human IgG1, kappa)
heavy 1: not shown
heavy 2: not shown
light: B1 light
notes: as for B1
B10: GpH7-A5/GpH7-B3 variant L234_03V/GpL16-k0 (He Ab) (antibody, human IgG1, kappa)
heavy 1: not shown
heavy 2: not shown
light: B1 light
notes: as for B1
B11: GpH7-A5/GpH7-B3 variant L234_02A/GpL16-k0 (He Ab) (antibody, human IgG1, kappa)
heavy 1: not shown
heavy 2: not shown
light: B1 light
notes: as for B1
B12: GpH7-A5/GpH7-B3 variant L234_06M/GpL16-k0 (He Ab) (antibody, human IgG1, kappa)
heavy 1: not shown
heavy 2: not shown
light: B1 light
notes: as for B1
B13: GpH7-A5/GpH7-B3 variant L234_12R/GpL16-k0 (He Ab) (antibody, human IgG1, kappa)
heavy 1: not shown
heavy 2: not shown
light: B1 light
notes: as for B1
B14: GpH7-A5/GpH7-B3 variant S239_15Y/GpL16-k0 (antibody, human IgG1, kappa)
heavy 1: not shown
heavy 2: not shown
light: B1 light
notes: as for B3
B15: GpH7-A5/GpH7-B3 variant L235_14T/GpL16-k0 (He Ab) (antibody, human IgG1, kappa)
heavy 1: not shown
heavy 2: not shown
light: B1 light
notes: as for B1
B16: GpH7-A5/GpH7-B3 variant L235_06M/GpL16-k0 (He Ab) (antibody, human IgG1, kappa)
heavy 1: not shown
heavy 2: not shown
light: B1 light
notes: as for B1

What was measured:
[1] = target: T4, FcγRIa extracellular domain with C-terminal His tag (human, UniProt P12314 16-292); experiment: SPR (Biacore), relative binding, HeCon Ab = 100
T4 construct: extracellular domain; Expressed in FreeStyle293 cells; analyte in the SPR assay; also called FcgRI; 1a

[2] = target: T1, FcγRIIb extracellular domain with …; experiment: SPR (Biacore), relative binding, HeCon Ab = 100
[3] = target: T4, FcγRIa extracellular domain with …; experiment: SPR (Biacore); He/Con_1a divided by He/Con_2b (FcγRIa against FcγRIIb)
FcγRIIa R [4] = target: T2, FcγRIIa R; experiment: SPR (Biacore T100); He/Con_2aR divided by He/Con_2b (FcγRIIa R over FcγRIIb)
FcγRIIa R [5] = target: T2, FcγRIIa R; experiment: SPR (Biacore T100), antibody captured on antigen peptide chip, FcγR as analyte; binding relative to GpH7-A5/GpH7-B3/GpL16-k0 = 100
FcγRIIb = target: T3, FcγRIIb; experiment: as above

T4 sequence (P12314 16-292): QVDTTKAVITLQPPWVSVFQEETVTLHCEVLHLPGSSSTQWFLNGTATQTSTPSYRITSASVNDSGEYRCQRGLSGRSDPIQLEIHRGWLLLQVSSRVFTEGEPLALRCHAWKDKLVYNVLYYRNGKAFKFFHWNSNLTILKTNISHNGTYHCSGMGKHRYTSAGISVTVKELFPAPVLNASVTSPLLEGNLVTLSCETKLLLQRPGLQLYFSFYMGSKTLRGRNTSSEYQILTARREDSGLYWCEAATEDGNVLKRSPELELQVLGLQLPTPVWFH

| Binder | He/Con_1a [1] | He/Con_2b [2] | He_1a/2b (Ia/IIb) [3] | He_2aR/2b (IIaR/IIb) (FcγRIIa R [4]) | He/Con_2aR (IIaR binding) (FcγRIIa R [5]) | He/Con_2b (IIb binding) (FcγRIIb) |
| --- | --- | --- | --- | --- | --- | --- |
| B1 | 90.5 % of HeCon Ab (=100) | 48.2 % of HeCon Ab (=100) | 1.88 ratio | – | – | – |
| B2 | 91.8 % of HeCon Ab (=100) | 16.2 % of HeCon Ab (=100) | 5.67 ratio | – | – | – |
| B3 | – | – | – | 1.38 ratio | 53.9 % of control | 39.1 % of control |
| B4 | 78 % of HeCon Ab (=100) | – | 8.12 ratio | – | – | – |
| B5 | 87.2 % of HeCon Ab (=100) | 35.4 % of HeCon Ab (=100) | 2.46 ratio | – | – | – |
| B6 | 94 % of HeCon Ab (=100) | 42.6 % of HeCon Ab (=100) | 2.21 ratio | – | – | – |
| B7 | 79.9 % of HeCon Ab (=100) | 6.3 % of HeCon Ab (=100) | 12.7 ratio | – | – | – |
| B8 | 103 % of HeCon Ab (=100) | 80.9 % of HeCon Ab (=100) | 1.27 ratio | – | – | – |
| B9 | 94.7 % of HeCon Ab (=100) | 54.7 % of HeCon Ab (=100) | 1.73 ratio | – | – | – |
| B10 | 104 % of HeCon Ab (=100) | 73.1 % of HeCon Ab (=100) | 1.43 ratio | – | – | – |
| B11 | 97.5 % of HeCon Ab (=100) | 64.9 % of HeCon Ab (=100) | 1.5 ratio | – | – | – |
| B12 | 104 % of HeCon Ab (=100) | 78.5 % of HeCon Ab (=100) | 1.32 ratio | – | – | – |
| B13 | 91.8 % of HeCon Ab (=100) | 18.9 % of HeCon Ab (=100) | 4.86 ratio | – | – | – |
| B14 | – | – | – | 1.21 ratio | 42.2 % of control | 34.9 % of control |
| B15 | 88.7 % of HeCon Ab (=100) | 46.8 % of HeCon Ab (=100) | 1.9 ratio | – | – | – |
| B16 | 98 % of HeCon Ab (=100) | 81 % of HeCon Ab (=100) | 1.21 ratio | – | – | – |
